From patent US6835382B2, “Ii peptide therapeutics to enhance antigen presentation” (University of Massachusetts, priority 1996, dated 2004) come the findings set out here.

The target of test [1] is T1, murine A^d MHC class II allele (Mus musculus, UniProt P01921+P04228).
T1 construct: The A20 and CH27 B cell lymphoma lines express H-2^d and H-2^k alleles, respectively; endogenous in cells; host or cells: A20 B cell lymphoma (mitomycin C-treated)
T1 sequence (P04228 24-256): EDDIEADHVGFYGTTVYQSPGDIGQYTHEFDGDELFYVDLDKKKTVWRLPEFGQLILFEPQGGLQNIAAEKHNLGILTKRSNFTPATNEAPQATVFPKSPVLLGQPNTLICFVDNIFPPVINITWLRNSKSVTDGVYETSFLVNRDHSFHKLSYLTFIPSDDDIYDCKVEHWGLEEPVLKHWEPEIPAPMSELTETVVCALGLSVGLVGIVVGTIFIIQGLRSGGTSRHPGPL
T1 sequence (P01921 28-265): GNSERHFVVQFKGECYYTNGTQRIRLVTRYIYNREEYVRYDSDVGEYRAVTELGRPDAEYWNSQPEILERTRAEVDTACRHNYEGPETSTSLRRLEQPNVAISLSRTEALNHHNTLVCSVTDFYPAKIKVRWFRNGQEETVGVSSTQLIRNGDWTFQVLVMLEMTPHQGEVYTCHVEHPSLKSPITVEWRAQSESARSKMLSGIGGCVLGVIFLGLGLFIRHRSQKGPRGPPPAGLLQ
Description: simultaneous assay, A^d allele (A20 APC, 9.30.B2 T hybridoma, HEL11-25). The class given is cell-based. The conditions noted are these: Table 2; for Times Baseline Response, A^d: AE peptide 64 μM, 0.05 μM HEL11-25, supernatant 1:2. The method, then: (§1) In the “simultaneous assay” the four components of the assay are cultured together for a 24 h period. The components of this primary culture, added at the same time or simultaneously, are: (a) the antigenic peptide, (b) mitomycin C-treated, MHC class II-positive antigen presenting cells (APC) with the MHC class II allele required for binding of the specific antigenic peptide and its presentation to the antigenic peptide-specific T cell hybridoma, (c) an AE101 series effector peptide, and (d) MHC class II allele-restricted T cell hybridoma specific for the antigenic peptide and the MHC class II allele restricting its presentation. At the end of the incubation of this primary culture, an aliquot of its supernatant is transferred into a second culture well for incubation with an interleukin-dependent lymphoblastoid cell line. The degree of stimulation of that second, indicator cell by the interleukins which had been released from the activated T cell hybridoma in the primary culture is measured by quantitating tritiated thymidine deoxyribose {[^3H]TdR} uptake into the DNA of the HT-2 indicator cells of that second culture.
(§2) For these various assays, the following antigenic peptides were used: HEL11-25, hen egg lysozyme 11-25, AMKRHGLDNYRGYSL(A^d) (SEQ ID NO:5); HEL46-61, hen egg lysozyme 46-61, NTDGSTDYGILQINSR(Ak) (SEQ ID NO:6); HEL106-116, hen egg lysozyme 106-116, NAWVAWRNRCK (E^d) (SEQ ID NO:7); PGCC81-104, pigeon cytochrome c 81-104, […] (Ek) (SEQ ID NO:8), and THMCC82-103, tobacco hornworm moth cytochrome c 82-103, […] (Ek) (SEQ ID NO:9). AE101 series peptides were obtained from commercial sources. In general, the purity and composition of each peptide was confirmed by HPLC separation and mass spectrometry. The native protein antigens were HEL, hen egg lysozyme, and PGCC, pigeon cytochrome C. They were obtained from commercial sources.
(§3) For the experiments of these Examples, several T cell hybridomas, which are specific for certain antigenic peptides, were used. The TPc9.1 T hybridoma is specific for pigeon cytochrome C 81-104 peptide presented on the murine class II MHC allele E^k. The TPc9.1 hybridoma responds heteroclitically to tobacco hornworm moth cytochrome c 82-103 on E^k. The 3A9 T hybridoma is specific for hen egg lysozyme 46-61 on A^k. The 9.30.B2 hybridoma is specific for hen egg lysozyme 11-25 on A^d, and the G28.C9 hybridoma is specific for hen egg lysozyme 106-116 on E^d. The A20 and CH27 B cell lymphoma lines express H-2^d and H-2^k alleles, respectively.
(§4) Antigenic peptide-specific T cell activation was measured by the following procedure. Mitomycin C-treated A20 cells (A^dE^d) or CH27 cells APC (A^kE^k) were generated by incubating 5×10^6 cells/mL for 20 min at 37° C. with 0.025 mg/mL of mitomycin C (Sigma) in Dulbecco's Modified Eaglel's Medium (DMEM)/10 mM N-2(hydroxyethylpiperazine-N″[2-ethanesulfonic acid] (HEPES), followed by two washes with four volumes of DMEM-5% fetal calf serum (FCS), 10 mM HEPES. Fixed APC were generated by treating 1×10^6 cells/mL for 5 min with 0.5% paraformaldehyde in PBS (pH 7.2), followed by two washes with four volumes of DMEM-10% FCS, 10 mM HEPES. T cell hybridomas were irradiated 2200 rads before each assay.
(§5) For the “simultaneous assay”, 5×10^4 mitomycin C-treated APC, 5×10^4 T hybridoma cells and a submaximal concentration of antigenic peptide were cultured with and without serial 4-fold dilutions of each AE101 series peptide, usually at 64 μM, 16 μM, 4 μM, and 1 μM, at pH 7.2-7.4, in complete DMEM-5% FCS, 10 mM HEPES, 1×nonessential amino acids (Sigma), 1 mM sodium pyruvate, 2 mM L-glutamine, 100 U/mL penicillin G, 100 μg/mL streptomycin sulfate, 5×10^−5 M 2-mercaptoethanol (2-ME). Wells containing only T hybridoma cells (T)+APC were included to monitor for background T cell activation; and wells containing T+APC+AE101 series peptide were included to monitor for non-specific T hybridoma activation by each AE101 series peptide. […]

The target in test [2] is T2, murine A^k MHC class II allele (Mus musculus, UniProt P01910+P06343).
T2 construct: The A20 and CH27 B cell lymphoma lines express H-2^d and H-2^k alleles, respectively; endogenous in cells; host or cells: CH27 B cell lymphoma (mitomycin C-treated)
The experiment in a line: simultaneous assay, A^k allele (CH27 APC, 3A9 T hybridoma, HEL46-61). The test is classed as cell-based. Conditions: Table 2; for activity in simultaneous assay in the A^k system, in words: 64 μM; for Times Baseline Response, A^k: AE peptide 64 μM, 0.05 μM HEL46-61, supernatant 1:2. The method, then: as §1, §2, §3, §4, §5

T2 sequence (P01910 24-256): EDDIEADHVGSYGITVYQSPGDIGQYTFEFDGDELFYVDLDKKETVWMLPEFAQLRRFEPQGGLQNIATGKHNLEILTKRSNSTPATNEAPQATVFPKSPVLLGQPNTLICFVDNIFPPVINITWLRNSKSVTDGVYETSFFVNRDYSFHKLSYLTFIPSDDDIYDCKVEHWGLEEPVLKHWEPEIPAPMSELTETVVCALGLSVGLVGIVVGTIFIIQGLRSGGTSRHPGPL
T2 sequence (P06343 28-263): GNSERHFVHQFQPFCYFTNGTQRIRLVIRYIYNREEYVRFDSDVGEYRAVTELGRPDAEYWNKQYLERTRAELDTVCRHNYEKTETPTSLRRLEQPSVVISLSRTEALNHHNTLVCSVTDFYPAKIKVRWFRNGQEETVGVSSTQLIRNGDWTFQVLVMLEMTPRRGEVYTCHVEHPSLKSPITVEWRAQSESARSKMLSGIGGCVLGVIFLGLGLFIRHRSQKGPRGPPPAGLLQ

Regarding Ac-LRMKLPKSAK-NH2 [AE110], the “activity in simultaneous assay in the A^d system, in words” value in test [1] (64 μM) is listed as “not active”. Further, the “Times Baseline Response, A^d” value in test [1] is on record as 0.7. In addition, in test [2], the “activity in simultaneous assay in the A^k system, in words” value (“activity … in the A^k system, in words” below) was “inactive” and the “Times Baseline Response, A^k” value amounted to 0.8.

For Ac-DSLRMKLPKSAK-NH2 [AE154], the “Times Baseline Response, A^d” value in test [1] was found to be 1.1. Further, in test [2], the “Times Baseline Response, A^k” value was 1.0.

On to Ac-YRMKLPKSAK-NH2 [AE109], for which the “Times Baseline Response, A^d” value in test [1] was found to be 0.9. Besides, the “Times Baseline Response, A^k” value in test [2] amounted to 1.2.

For Ac-QLDSLRMKLPKSAK-NH2 [AE152], the “Times Baseline Response, A^d” value in test [1] came out at 0.9. In addition, in test [2], the “activity … in the A^k system, in words” value was “inhibitory” and the “Times Baseline Response, A^k” value stood at 0.5.

As to Ac-LQLDSLRMKLPKSAK-NH2 [AE151], the “Times Baseline Response, A^d” value in test [1] is 1.1. Besides, in test [2], the “activity … in the A^k system, in words” value is “inhibitory” and the “Times Baseline Response, A^k” value turned out to be 0.5.

Ac-NLQLDSLRMKLPKSAK-NH2 [AE150]: the “Times Baseline Response, A^d” value in test [1] is recorded as 1.0. Moreover, in test [2], the “activity … in the A^k system, in words” value is “inhibitory” and the “Times Baseline Response, A^k” value was determined as 0.0.

In the case of Ac-LDSLRMKLPKSAK-NH2 [AE153], the “Times Baseline Response, A^d” value in test [1] came out at 1.2. Further, the “Times Baseline Response, A^k” value in test [2] is 1.0.

Ac-SLRMKLPKSAK-NH2 [AE155]: the “Times Baseline Response, A^d” value in test [1] is given as 0.8. For the same substance, the “Times Baseline Response, A^k” value in test [2] turned out to be 1.0.
